Experimental data published in patent US20260258123A1 (MOMENTA PHARMACEUTICALS, published 2026).

How the values were obtained:
[1] = target: T1, endogenous human FcRn in cells (human, UniProt P55899 24-365); assay: cell-based or functional assay
[2] = target: T2, recombinant human FcRn (rhFcRn) (human, UniProt P55899 24-297; P16213 21-119); assay: SPR (ProteOn XPR 36), mAb captured on anti-human Fc, rhFcRn as analyte, pH 7.4, 298K
[3] = target: T1, endogenous human FcRn in cells; assay: FcRn occupancy in HAECs: unlabeled N027 for 1 hour at 37 C, free FcRn stained with VivoTag645-N027, flow cytometry
[4] = target: T3, cynomolgus monkey FcRn extracellular domain, GPI-linked, on the surface of HEK 293 cells (cynomolgus monkey, UniProt Q8SPV9 24-297; Q8SPW0 21-119, C-terminal engineered GPI linkage); assay: competition flow cytometry on HEK 293 cells with cell-surface GPI-linked cynomolgus monkey FcRn at pH 6.0; inhibition of the binding of 66 nM fluorescent probe-labeled non-specific IgG; readout cell bound IgG (MFI)
T3 construct: extracellular domain; b2m is not mentioned for these cells

[5] = target: T1, endogenous human FcRn in cells; assay: flow cytometry on fixed and permeabilised THP-1 cells (endogenous human FcRn), pH 7.4
[6] = target: T2, recombinant human FcRn (rhFcRn); assay: SPR method of Example 2; differs from the 19.4 pM of Table 3
[7] = target: T1, endogenous human FcRn in cells; assay: FcRn occupancy in HVTs: unlabeled N027 for 1 hour at 37 C, free FcRn stained with VivoTag645-N027, flow cytometry
[8] = target: T1, endogenous human FcRn in cells; assay: FcRn occupancy in HUVECs: unlabeled N027 for 1 hour at 37 C, free FcRn stained with VivoTag645-N027, flow cytometry

| Binder | intracellular IgG accumulation (VivoTag645-IgG, flow cytometry), ~IC50, HAECs [1] [µg/mL] | intracellular IgG accumulation (VivoTag645-IgG, flow cytometry), ~IC50, HUVECs [1] [µg/mL] | intracellular IgG accumulation (VivoTag645-IgG, flow cytometry), ~IC50, HVTs [1] [µg/mL] | Kd [2] [nM] | koff [2] [s⁻¹] | kon [2] [M⁻¹ s⁻¹] | IC50 [3] [µg/mL] | EC50 [4] [nM] | EC50 [5] [nM] | Kd [6] [nM] | IC50 [7] [µg/mL] | IC50 [8] [µg/mL] |
| --- | --- | --- | --- | --- | --- | --- | --- | --- | --- | --- | --- | --- |
| N027 (antibody, human IgG1, lambda, N297A, IgG1, lambda light chain; Fluorophore-labelled forms served as detection reagent in the occupancy assays; also called anti-FcRn antibody N027; VivoTag645-labeled N027) heavy: not shown light: QSALTQPASVSGSPGQSITISCTGTGSDVGSYNLVSWYQQHPGKAPKLMIYGDSERPSGVSNRFSGSKSGNTASLTISGLQAEDEADYYCSSYAGSGIYVFGTGTKVTVLGQPKAAPSVTLFPPSSEELQANKATLVCLISDFYPGAVTVAWKADSSPVKAGVETTTPSKQSNNKYAASSYLSLTPEQWKSHKSYSCQVTHEGSTVEKTVAPTECS | ~0.12 | ~0.15 | ~0.07 | 0.0194 | 2.31e-05 | 1.19e+06 | 0.23 | 4.46 | 3 | 0.0193 | 0.15 | 0.15 |
| N024 (antibody, human IgG1, lambda, N297A, IgG1, lambda light chain; also called anti-FcRn antibody N024) heavy: not shown light: QSALTQPASVSGSPGQSITISCTGTGSDVGSYNLVSWYQQHPGKAPKLMIYGDSERPSGVSNRFSGSKSGNTASLTISGLQAEDEADYYCSSYAGSGIYVFGTGTKVTVLGQPKAAPSVTLFPPSSEELQANKATLVCLISDFYPGAVTVAWKADSSPVKAGVETTTPSKQSNNKYAASSYLSLTPEQWKSHKSYSCQVTHEGSTVEKTVAPTECS | – | – | – | 0.0355 | 4.03e-05 | 1.13e+06 | – | 3.51 | – | – | – | – |
| N026 (antibody, human IgG1, lambda, N297A, IgG1, lambda light chain; also called anti-FcRn antibody N026) heavy: not shown light: QSALTQPASVSGSPGQSITISCTGTGSDVGSYNLVSWYQQHPGKAPKLMIYGDSERPSGVSNRFSGSKSGNTASLTISGLQAEDEADYYCSSYAGSGIYVFGTGTKVTVLGQPKAAPSVTLFPPSSEELQANKATLVCLISDFYPGAVTVAWKADSSPVKAGVETTTPSKQSNNKYAASSYLSLTPEQWKSHKSYSCQVTHEGSTVEKTVAPTECS | – | – | – | 0.0365 | 4.44e-05 | 1.22e+06 | – | 2.68 | – | – | – | – |
| N023 (antibody, human IgG1, lambda, N297A, also called anti-FcRn antibody N023) heavy: not shown light: QSALTQPASVSGSPGQSITISCTGTGSDVGSYNLVSWYQQHPGKAPKLMIYGDSERPSGVSNRFSGSKSGNTASLTISGLQAEDEADYYCSSYAGSGIYVFGTGTKVTVLGQPKAAPSVTLFPPSSEELQANKATLVCLISDFYPGAVTVAWKADSSPVKAGVETTTPSKQSNNKYAASSYLSLTPEQWKSHKSYSCQVTHEGSTVEKTVAPTECS | – | – | – | 0.0314 | 2.91e-05 | 927000 | – | 5.16 | – | – | – | – |
| N022 (antibody, human IgG1, lambda, N297A, also called anti-FcRn antibody N022) heavy: not shown light: QSALTQPASVSGSPGQSITISCTGTGSDVGSYNLVSWYQQHPGKAPKLMIYGDSERPSGVSNRFSGSKSGNTASLTISGLQAEDEADYYCSSYAGSGIYVFGTGTKVTVLGQPKAAPSVTLFPPSSEELQANKATLVCLISDFYPGAVTVAWKADSSPVKAGVETTTPSKQSNNKYAASSYLSLTPEQWKSHKSYSCQVTHEGSTVEKTVAPTECS | – | – | – | 0.031 | 4.42e-05 | 1.42e+06 | – | 4.8 | – | – | – | – |
